In patent US20200345804A1:
Where no end group is shown, it is not given here. [ ]: non-standard residue; d: D form. NMeA = CN[C@@H](C)C(=O)O

What was measured:
[1] = target: BIR3 domain of XIAP (human, residues 253-347, N-terminal His tag) (human); test: ITC
[2] = target: BIR3 domain of XIAP (human, residues 253-347, N-terminal His tag) (human); test: ITC, full curve titration
[3] = target: BIR3 domain of XIAP (human, residues 253-347, N-terminal His tag) (human); test: DELFIA displacement of AVPI-Biotin
[4] = target: recombinant BIR3 domain of cIAP2 with N-terminal 6xHis tag (Artificial Sequence); test: DELFIA displacement of AVPI-Biotin
[5] = target: recombinant BIR3 domain of cIAP1 with N-terminal 6xHis tag (Artificial Sequence); test: DELFIA displacement of AVPI-Biotin
[6] = target: BIR3 domain of XIAP (human, residues 253-347, N-terminal His tag) (human); test: DELFIA displacement, 2-h incubation
[7] = target: recombinant BIR3 domain of cIAP1 with N-terminal 6xHis tag (Artificial Sequence); test: DELFIA displacement, 2-h incubation
[8] = target: recombinant BIR3 domain of cIAP2 with N-terminal 6xHis tag (Artificial Sequence); test: DELFIA displacement, 2-h incubation
[9] = target: BIR3 domain of XIAP (human, residues 253-347, N-terminal His tag) (human); test: ITC, difference to N-Me-AVPF-NH2
[10] = target: BIR2 domain of XIAP (Artificial Sequence); test: DELFIA displacement assay on XIAP BIR2
[11] = target: BIR3 domain of XIAP (human, residues 253-347, N-terminal His tag) (human); test: DELFIA displacement of AVPI-Biotin; remark: listed apart in the source
Target sequence in this assay (chain, as listed by the source): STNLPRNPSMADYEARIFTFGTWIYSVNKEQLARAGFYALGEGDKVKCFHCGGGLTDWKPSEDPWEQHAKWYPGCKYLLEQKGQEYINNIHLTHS

[12] = target: recombinant BIR3 domain of cIAP1 with N-terminal 6xHis tag (Artificial Sequence); test: DELFIA displacement of AVPI-Biotin; remark: listed apart in the source
Target sequence in this assay (chain, as listed by the source limits assumed): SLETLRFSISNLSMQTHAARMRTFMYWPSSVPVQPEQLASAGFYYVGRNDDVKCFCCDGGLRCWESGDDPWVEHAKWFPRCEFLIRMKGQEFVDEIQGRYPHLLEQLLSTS

[13] = target: recombinant BIR3 domain of cIAP2 with N-terminal 6xHis tag (Artificial Sequence); test: DELFIA displacement of AVPI-Biotin; remark: listed apart in the source
Target sequence in this assay (chain, as listed by the source limits assumed): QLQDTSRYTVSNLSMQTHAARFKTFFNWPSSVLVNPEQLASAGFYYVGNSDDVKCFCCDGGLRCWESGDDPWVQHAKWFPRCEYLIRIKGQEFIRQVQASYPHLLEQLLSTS

Molecule	-TΔS [1]	Kd [1]	δ(-TΔS) [9]	δ(ΔH) [9]	ΔH [1]	also measured
AVPI (peptide)	-4 kcal/mol	825 nM	–	–	–	ΔG [1]: -8.3 kcal/mol; ΔH [2]: -4.3 kcal/mol; IC50 [3]: 957 nM; IC50 [4]: 320 nM
Ala-pTyr-Pro-(4F)Phe-NH2 (peptide)	3.04 kcal/mol	205 nM	–	–	–	ΔG [1]: -9.13 kcal/mol; ΔH [2]: -12.2 kcal/mol; IC50 [3]: 40.1 nM; IC50 [5]: 124 nM; IC50 [4]: 143 nM
MeHN-A-Dap(3-FSB)-P-F-NH2 (peptide)	–	–	–	–	–	IC50 [3]: 47.3 nM
MeHN-A-Dap(4-FSBz)-P-F-CONH2 (peptide)	–	–	–	–	–	IC50 [6]: 17.1 nM; IC50 [7]: 18.6 nM; IC50 [8]: 85.7 nM
MeHN-A-Dap(p-OSO2F-Benzamide)-P-F-CONH2 (peptide)	–	–	–	–	–	IC50 [7]: 335 nM; IC50 [8]: > 1000 nM
MeHN-A-F(OSO2F)-P-F-CONH2 (peptide)	–	–	–	–	–	IC50 [8]: 343 nM
MeNH-A-Dap(4-VSB)P-F-CONH2 (peptide)	–	–	–	–	–	IC50 [6]: 31 nM; IC50 [7]: 4.3 nM; IC50 [8]: 1.3 nM
MeNH-A-hF(OSO2F)-P-F-CONH2 (peptide)	–	–	–	–	–	IC50 [6]: 197 nM; IC50 [7]: 26 nM; IC50 [8]: 188 nM
N-Me-Ala-(p-phosphonomethyl)Phe-Pro-Phe-NH2 (peptide)	–	–	4 kcal/mol	-4.4 kcal/mol	–	IC50 [3]: 35 nM
NMe-Ala-pSFB-Dap-Pro-Phe-NH2 (peptide)	–	–	–	–	–	IC50 [10]: 2220 nM
compound 3 (N-Me-Ala-P2-Pro-Phe-NH2, P2 = (4-NO2)-Phe) (peptide)	-0.1 kcal/mol	280 nM	0.9 kcal/mol	-1.1 kcal/mol	-8.9 kcal/mol	–
compound 5 (N-Me-Ala-P2-Pro-Phe-NH2, P2 = (3Cl-4CF3)Phe) (peptide)	-0.9 kcal/mol	190 nM	0.1 kcal/mol	-0.5 kcal/mol	-8.3 kcal/mol	–
compound 6 (N-Me-Ala-P2-Pro-Phe-NH2, P2 = (3F-4CF3)Phe) (peptide)	-1.2 kcal/mol	155 nM	-0.2 kcal/mol	-0.3 kcal/mol	-8.1 kcal/mol	–
compound 7 (N-Me-Ala-P2-Pro-Phe-NH2, P2 = (3Cl-5CF3)Phe) (peptide)	-1.3 kcal/mol	133 nM	-0.3 kcal/mol	-0.2 kcal/mol	-8 kcal/mol	–
compound 8 (N-Me-Ala-P2-Pro-Phe-NH2, P2 = Cyclohexyl Glycine) (peptide)	-1.4 kcal/mol	354 nM	-0.4 kcal/mol	0 kcal/mol	-7.8 kcal/mol	–
compound 9 (N-Me-Ala-P2-Pro-Phe-NH2, P2 = Dab) (peptide)	-1.4 kcal/mol	230 nM	-0.4 kcal/mol	0.1 kcal/mol	-7.7 kcal/mol	–
compound 11 (N-Me-Ala-P2-Pro-Phe-NH2, P2 = Phe(4-CF3)) (peptide)	-1.9 kcal/mol	213 nM	-0.9 kcal/mol	0.6 kcal/mol	-7.2 kcal/mol	–
AVPF	–	175 nM	–	–	–	ΔH [2]: -7.64 kcal/mol; IC50 [11]: 60 nM; IC50 [12]: 50.9 nM; IC50 [13]: 168 nM
[NMeA]VPF-NH2 [N-Me-AVPF-NH2]	-1 kcal/mol	–	–	–	-7.8 kcal/mol	–

Now from value to molecule, other results behind:

-TΔS [1]	Kd [1]	δ(-TΔS) [9]	δ(ΔH) [9]	ΔH [1]	Molecule	also measured
–	–	0 kcal/mol	-0.5 kcal/mol	–	compound 2 (N-Me-Ala-P2-Pro-Phe-NH2, P2 = (4SO3^-)-Phe) (peptide)	IC50 [5]: 144 nM
-1.8 kcal/mol	194 nM	-0.8 kcal/mol	0.4 kcal/mol	-7.4 kcal/mol	compound 10 (N-Me-Ala-P2-Pro-Phe-NH2, P2 = (2F-4CF3)Phe) (peptide)	–
-1.9 kcal/mol	227 nM	-0.9 kcal/mol	0.7 kcal/mol	-7.1 kcal/mol	compound 12 (N-Me-Ala-P2-Pro-Phe-NH2, P2 = (4-OCF3)Phe) (peptide)	–
-2.3 kcal/mol	182 nM	-1.3 kcal/mol	0.9 kcal/mol	-6.9 kcal/mol	compound 13 (N-Me-Ala-P2-Pro-Phe-NH2, P2 = (p-guanidino)Phe) (peptide)	–
-3.3 kcal/mol	81 nM	-2.3 kcal/mol	1.4 kcal/mol	-6.4 kcal/mol	compound 14 (N-Me-Ala-P2-Pro-Phe-NH2, P2 = (2F-4CF3-5Me)Phe) (peptide)	–
